# Assay results as given in PMC5175582.
# pKd: −log10 of the molar value.
# What was measured:
# [1] = target: Biotin-labelled MMRN1 (human) (UniProt Q13201); assay: SPR; BIAcoreX; biotin-labelled MMRN1 immobilised on streptavidin-coated sensor chips (500–1000 RU); VWF A domains perfused in HEPES-Tyrode running buffer with 0.005 % P-20; two-state conformational model for A1A2A3 and A1, 1:1 Langmuir model for A3; apparent affinity
# [2] = target: full-length wild-type (WT)-VWF (UniProt P04275); assay: ELISA; modified ELISA; MMRN1 immobilised; WT-VWF (1 µg/ml) added simultaneously with collagen peptide (250 μg/ml, no preincubation with VWF); treatment of VWF not stated for this panel
# Chain of Biotin-labelled MMRN1 (human) (Q13201 20-1228): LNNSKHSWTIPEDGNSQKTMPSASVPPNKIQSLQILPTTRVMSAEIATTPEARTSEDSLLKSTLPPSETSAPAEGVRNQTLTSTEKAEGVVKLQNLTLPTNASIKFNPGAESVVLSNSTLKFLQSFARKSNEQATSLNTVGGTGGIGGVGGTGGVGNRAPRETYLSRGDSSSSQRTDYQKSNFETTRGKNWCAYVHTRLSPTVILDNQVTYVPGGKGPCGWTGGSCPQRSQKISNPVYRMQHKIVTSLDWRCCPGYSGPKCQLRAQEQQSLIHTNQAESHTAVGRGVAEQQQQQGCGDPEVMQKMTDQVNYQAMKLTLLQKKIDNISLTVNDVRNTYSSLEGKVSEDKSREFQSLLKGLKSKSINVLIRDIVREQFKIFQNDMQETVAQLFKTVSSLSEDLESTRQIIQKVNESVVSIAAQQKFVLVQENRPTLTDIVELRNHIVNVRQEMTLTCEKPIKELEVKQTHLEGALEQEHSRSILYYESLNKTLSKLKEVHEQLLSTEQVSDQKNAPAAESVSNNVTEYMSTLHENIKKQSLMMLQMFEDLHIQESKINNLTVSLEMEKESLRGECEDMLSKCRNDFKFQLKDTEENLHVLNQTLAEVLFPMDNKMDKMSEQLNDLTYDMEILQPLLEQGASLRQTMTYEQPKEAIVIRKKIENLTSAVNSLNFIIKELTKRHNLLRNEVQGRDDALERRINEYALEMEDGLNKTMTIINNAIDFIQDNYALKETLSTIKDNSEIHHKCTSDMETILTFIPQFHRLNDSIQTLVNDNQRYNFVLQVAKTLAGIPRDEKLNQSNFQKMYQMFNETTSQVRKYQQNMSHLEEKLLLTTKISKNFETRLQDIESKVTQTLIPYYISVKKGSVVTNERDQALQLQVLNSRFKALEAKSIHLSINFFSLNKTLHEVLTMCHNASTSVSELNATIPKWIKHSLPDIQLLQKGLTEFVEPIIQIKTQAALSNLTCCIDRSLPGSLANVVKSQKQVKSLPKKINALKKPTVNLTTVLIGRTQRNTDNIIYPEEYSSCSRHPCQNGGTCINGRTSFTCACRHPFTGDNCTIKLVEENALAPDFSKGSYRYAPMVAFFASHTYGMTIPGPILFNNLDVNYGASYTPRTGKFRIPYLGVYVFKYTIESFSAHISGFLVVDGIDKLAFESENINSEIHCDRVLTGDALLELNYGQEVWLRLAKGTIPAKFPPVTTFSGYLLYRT
Substance,pKd [1],"ka1 (two-state model, first step) [1]","ka2 (two-state model, second step) [1]","kd1 (two-state model, first step) [1]","kd2 (two-state model, second step) [1]",percent reduction of WT-VWF binding to immobilised MMRN1 [2]
Monomeric VWF A1 domain (domain or fragment),7.41,1.2e+06 M⁻¹ s⁻¹,0.01 s⁻¹,0.13 s⁻¹,0.0032 s⁻¹,
Triple-helical type III collagen peptide GPRGQOGVMGFO,,,,,,70%
